{"source": "paper PMC5882242", "about": "“Functional roles of Mg^2+ binding sites in ion-dependent gating of a Mg^2+ channel, MgtE, revealed by solution NMR” (eLife, 2018)", "proteins": {"B1": {"name": "full-length MgtE from Thermus thermophilus (natural protein, UniProt Q5SMG8 1-450, looked up)", "chain": "MEEKLAVSLQEALQEGDTRALREVLEEIHPQDLLALWDELKGEHRYVVLTLLPKAKAAEVLSHLSPEEQAEYLKTLPPWRLREILEELSLDDLADALQAVRKEDPAYFQRLKDLLDPRTRAEVEALARYEEDEAGGLMTPEYVAVREGMTVEEVLRFLRRAAPDAETIYYIYVVDEKGRLKGVLSLRDLIVADPRTRVAEIMNPKVVYVRTDTDQEEVARLMADYDFTVLPVVDEEGRLVGIVTVDDVLDVLEAEATEDIHKLGAVDVPDLVYSEAGPVALWLARVRWLVILILTGMVTSSILQGFESVLEAVTALAFYVPVLLGTGGNTGNQSATLIIRALATRDLDLRDWRRVFLKEMGVGLLLGLTLSFLLVGKVYWDGHPLLLPVVGVSLVLIVFFANLVGAMLPFLLRRLGVDPALVSNPLVATLSDVTGLLIYLSVARLLLEAV", "notes": "MgtE, Mg2+ channel of Thermus thermophilus, full length (residues 1-450: cytoplasmic region 1-263, transmembrane region 264-450); plasmid with N-terminal His x 6 tag and HRV-3C protease recognition site; Dimer in DDM micelles by SEC; theoretical M.W. 50 kDa a subunit; The construct is described in Hattori et al., 2007a; also called wild-type MgtE; WT; source: E. coli C41 (DE3), solubilized in …"}}, "target": "the molecule itself", "assay": "SEC; Superdex 200 GL 10/300; 20 mM HEPES-NaOH (pH 6.1), 100 mM NaCl, 1 mM DDM; BSA monomer, dimer and tetramer as standards; MgtE in DDM micelles"}
{"protein": "B1", "values": [{"measurement": "stoichiometry N", "result": 2}]}
